Target: T1, A/Serbia/NS-601/2014 H1N1 NA, soluble tetramer with His tag attached (Influenza A virus A/Serbia/NS-601/2014 …, strain)
T1 chain: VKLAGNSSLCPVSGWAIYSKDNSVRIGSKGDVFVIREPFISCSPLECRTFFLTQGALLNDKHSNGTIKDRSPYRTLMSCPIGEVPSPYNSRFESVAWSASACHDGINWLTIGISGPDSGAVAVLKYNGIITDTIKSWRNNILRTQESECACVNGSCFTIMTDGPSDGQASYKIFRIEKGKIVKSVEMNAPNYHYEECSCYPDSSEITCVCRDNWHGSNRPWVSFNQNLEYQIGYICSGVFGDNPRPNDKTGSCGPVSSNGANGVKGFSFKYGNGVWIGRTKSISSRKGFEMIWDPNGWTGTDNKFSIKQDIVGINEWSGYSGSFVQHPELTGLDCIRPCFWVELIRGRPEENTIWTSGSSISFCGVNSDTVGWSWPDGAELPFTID
Test: SPR
Conditions: both partners purified

B1: Z2B3-D102R Fab (Fab, V domains shown)
VH: EVQLVQSGAEVKKPGSSVKVSCKASGGPFSSYGFSWVRQAPGQGLEWMGGIIPVYGTTNYAQKFQGRVTITADESTSTAYMELSSLKSEDTAVYYCARDLQRTPMVDRIIGSYYYYNGLDVWGQGTTVTVSS
VL: QSVLTQPASVSGSPGQSITISCTGASSDVGDYNYVSWYQQHPGKAPKLMIYDVSNRPSGVSNRFSGSKSGDTASLTISGLQAEDEADYYCSSYTRSSSVVFGGGTKLTVL
- Kd: 401 nM
